# Results reported in paper PMC9482650, “Quantitative fragmentomics allow affinity mapping of interactomes” (Nature Communications, 2022).
# Experiments:
# Experiment in all cases: holdup assay
# Parameters in all cases: key: below the threshold = too weak to quantify, mostly under pKd 3.1 to 4
# [1] = target: T1, APBA3_1, O96018
# T1 sequence (O96018 389-490, limits assumed, looked up): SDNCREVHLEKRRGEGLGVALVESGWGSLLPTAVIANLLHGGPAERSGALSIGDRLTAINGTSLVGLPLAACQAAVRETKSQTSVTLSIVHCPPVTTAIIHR
# [2] = target: T2, CARD11, Q9BXL7
# T2 sequence (Q9BXL7 662-765, limits assumed, looked up): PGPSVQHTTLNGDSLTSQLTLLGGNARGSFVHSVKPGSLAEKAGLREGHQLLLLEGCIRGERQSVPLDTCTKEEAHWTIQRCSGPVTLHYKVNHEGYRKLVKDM
# [3] = target: DLG2_2, Q15700
# [4] = target: DLG4_3, P78352
# [5] = target: T3, DVL3, Q92997
# T3 sequence (Q92997 244-331, limits assumed, looked up): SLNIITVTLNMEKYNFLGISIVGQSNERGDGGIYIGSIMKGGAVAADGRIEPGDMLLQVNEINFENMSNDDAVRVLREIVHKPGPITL
# [6] = target: FRMPD3, Q5JV73
# [7] = target: GOPC, Q9HD26
# [8] = target: GORASP2, Q9H8Y8
# [9] = target: T4, GRIP1_5, Q9Y3R0
# T4 sequence (Q9Y3R0 568-668, limits assumed, looked up): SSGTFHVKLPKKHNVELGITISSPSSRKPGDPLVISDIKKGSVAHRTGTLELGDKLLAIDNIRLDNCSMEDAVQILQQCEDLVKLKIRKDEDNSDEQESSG
# [10] = target: GRIP2_4, Q9C0E4
# [11] = target: GRIP2_6, Q9C0E4
# [12] = target: HTRA1, Q92743
# [13] = target: HTRA2, O43464
# [14] = target: T5, HTRA3, P83110
# T5 sequence (P83110 354-453, limits assumed, looked up): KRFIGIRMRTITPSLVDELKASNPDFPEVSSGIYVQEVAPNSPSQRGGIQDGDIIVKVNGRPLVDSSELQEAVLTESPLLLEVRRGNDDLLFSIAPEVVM
# [15] = target: Inadl_6, Q8NI35
# [16] = target: LAP2, Q96RT1
# [17] = target: LNX1_1, Q8TBB1
# [18] = target: LNX1_2, Q8TBB1
# [19] = target: T6, LNX2_3, Q8N448
# T6 sequence (Q8N448 463-564, limits assumed, looked up): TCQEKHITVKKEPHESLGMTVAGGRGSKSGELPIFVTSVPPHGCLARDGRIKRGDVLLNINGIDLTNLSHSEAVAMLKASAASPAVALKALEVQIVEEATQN
# [20] = target: T7, LRRC7, Q96NW7
# T7 sequence (Q96NW7 1440-1537, limits assumed, looked up): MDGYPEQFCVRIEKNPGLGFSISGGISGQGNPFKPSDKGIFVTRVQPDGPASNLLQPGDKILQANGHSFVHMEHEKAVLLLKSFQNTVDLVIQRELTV
# [21] = target: MAGI3_2, Q5TCQ9
# [22] = target: T8, MPP7, Q5T2T1
# T8 sequence (Q5T2T1 134-230, limits assumed, looked up): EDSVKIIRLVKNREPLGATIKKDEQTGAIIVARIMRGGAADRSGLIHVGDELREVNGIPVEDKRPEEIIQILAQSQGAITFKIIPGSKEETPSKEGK
# [23] = target: NHERF4_1, Q86UT5-2
# [24] = target: PDZRN4_1, Q6ZMN7
# [25] = target: T9, SNTB1, Q13884
# T9 sequence (Q13884 107-205, limits assumed, looked up): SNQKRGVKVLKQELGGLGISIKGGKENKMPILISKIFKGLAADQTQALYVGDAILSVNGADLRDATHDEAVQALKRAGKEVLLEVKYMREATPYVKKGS
# [26] = target: TJP1_3, Q07157
# [27] = target: T10, TJP3_3, O95049
# T10 sequence (O95049 375-456, limits assumed, looked up): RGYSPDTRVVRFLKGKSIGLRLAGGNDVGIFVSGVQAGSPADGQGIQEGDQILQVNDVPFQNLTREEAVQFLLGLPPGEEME
# [28] = plain residues with an end cap or a label only (N-terminal biotin on a linker: ttds)
# [29] = plain residues with an end cap or a label only (N-terminal biotin on a linker: ahx)
# [30] = plain residues with an end cap or a label only (N-terminal biotin on a linker: ado-ado)
# Sequence of GRIP2_4, Q9C0E4 (Q9C0E4 446-548): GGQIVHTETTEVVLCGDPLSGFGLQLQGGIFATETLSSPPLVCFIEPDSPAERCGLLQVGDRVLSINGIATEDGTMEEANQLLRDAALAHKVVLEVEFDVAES
# Sequence of LNX1_2, Q8TBB1 (Q8TBB1 371-470): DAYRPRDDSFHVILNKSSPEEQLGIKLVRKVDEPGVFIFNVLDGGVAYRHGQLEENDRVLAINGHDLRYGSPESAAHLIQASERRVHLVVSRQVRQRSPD
# Sequence of HTRA1, Q92743 (Q92743 360-477): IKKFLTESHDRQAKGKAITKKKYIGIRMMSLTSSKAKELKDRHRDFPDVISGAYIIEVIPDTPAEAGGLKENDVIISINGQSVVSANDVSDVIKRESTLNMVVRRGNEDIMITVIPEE
# Sequence of DLG4_3, P78352 (P78352 306-403): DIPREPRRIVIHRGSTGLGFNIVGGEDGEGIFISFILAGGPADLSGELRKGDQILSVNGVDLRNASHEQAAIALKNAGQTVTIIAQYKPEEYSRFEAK
# Sequence of GRIP2_6, Q9C0E4 (Q9C0E4 648-740): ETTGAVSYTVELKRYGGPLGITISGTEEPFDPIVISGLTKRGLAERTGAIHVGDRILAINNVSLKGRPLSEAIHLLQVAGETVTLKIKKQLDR
# Sequence of LNX1_1, Q8TBB1 (Q8TBB1 261-371): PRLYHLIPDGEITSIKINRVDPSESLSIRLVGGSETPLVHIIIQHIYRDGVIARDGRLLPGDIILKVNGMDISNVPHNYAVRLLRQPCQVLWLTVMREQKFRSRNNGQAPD
# Sequence of TJP1_3, Q07157 (Q07157 416-512): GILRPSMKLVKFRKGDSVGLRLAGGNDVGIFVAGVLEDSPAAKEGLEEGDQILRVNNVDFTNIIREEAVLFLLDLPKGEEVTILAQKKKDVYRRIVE
# Sequence of NHERF4_1, Q86UT5-2 (Q86UT5 other isoform, or with tags, fused parts or gaps): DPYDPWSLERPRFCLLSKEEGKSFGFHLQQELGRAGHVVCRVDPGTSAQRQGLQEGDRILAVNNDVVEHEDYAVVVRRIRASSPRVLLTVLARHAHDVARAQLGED
# Sequence of HTRA2, O43464 (O43464 355-458): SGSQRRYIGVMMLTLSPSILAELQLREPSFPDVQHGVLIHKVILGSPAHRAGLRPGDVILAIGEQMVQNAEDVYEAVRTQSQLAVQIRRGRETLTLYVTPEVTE
# Sequence of DLG2_2, Q15700 (Q15700 189-283): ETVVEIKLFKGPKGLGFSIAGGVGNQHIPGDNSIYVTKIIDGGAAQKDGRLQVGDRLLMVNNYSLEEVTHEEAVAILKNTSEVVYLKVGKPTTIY
# Sequence of MAGI3_2, Q5TCQ9 (Q5TCQ9 398-503): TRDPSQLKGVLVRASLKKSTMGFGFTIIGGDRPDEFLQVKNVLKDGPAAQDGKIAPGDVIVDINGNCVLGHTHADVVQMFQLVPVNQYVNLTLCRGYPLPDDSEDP
# Sequence of FRMPD3, Q5JV73 (Q5JV73 12-100): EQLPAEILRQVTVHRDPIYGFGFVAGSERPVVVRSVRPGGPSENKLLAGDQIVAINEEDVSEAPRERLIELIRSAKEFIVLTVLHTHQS
# Sequence of LAP2, Q96RT1 (Q96RT1 other isoform, or with tags, fused parts or gaps): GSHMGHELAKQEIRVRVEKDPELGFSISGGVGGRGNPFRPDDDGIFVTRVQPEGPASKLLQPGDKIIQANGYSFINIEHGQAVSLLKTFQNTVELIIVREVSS
# Sequence of Inadl_6, Q8NI35 (Q8NI35 1058-1167): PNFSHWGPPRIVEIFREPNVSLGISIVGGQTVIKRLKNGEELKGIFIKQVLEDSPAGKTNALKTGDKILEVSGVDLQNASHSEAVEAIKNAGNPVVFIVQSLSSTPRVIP
# Sequence of PDZRN4_1, Q6ZMN7 (Q6ZMN7 213-318): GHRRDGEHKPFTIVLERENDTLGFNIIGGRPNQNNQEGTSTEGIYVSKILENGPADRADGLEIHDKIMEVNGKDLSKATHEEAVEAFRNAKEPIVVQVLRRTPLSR
binder,measurement,setting,value
"NQLAWFDTDL [CTNNB1, P35222]",pKd,[1]; [28],below the threshold
same,pKd,[2]; [28],below the threshold
same,pKd,[3]; [28],below the threshold
same,pKd,[4]; [28],below the threshold
same,pKd,[5]; [28],below the threshold
same,pKd,[6]; [28],below the threshold
same,pKd,[7]; [28],below the threshold
same,pKd,[8]; [28],below the threshold
same,pKd,[9]; [28],below the threshold
same,pKd,[10]; [28],below the threshold
same,pKd,[11]; [28],below the threshold
same,pKd,[12]; [28],below the threshold
same,pKd,[13]; [28],below the threshold
same,pKd,[14]; [28],below the threshold
same,pKd,[15]; [28],4.13
same,pKd,[16]; [28],4.53
same,pKd,[17]; [28],3.47
same,pKd,[18]; [28],below the threshold
same,pKd,[19]; [28],below the threshold
same,pKd,[20]; [28],3.94
same,pKd,[21]; [28],below the threshold
same,pKd,[22]; [28],below the threshold
same,pKd,[23]; [28],below the threshold
same,pKd,[24]; [28],below the threshold
same,pKd,[25]; [28],below the threshold
same,pKd,[26]; [28],below the threshold
same,pKd,[27]; [28],below the threshold
"TIVSWPGTFL [LNX1, Q8TBB1]",pKd,[1]; [29],below the threshold
same,pKd,[2]; [29],below the threshold
same,pKd,[3]; [29],below the threshold
same,pKd,[4]; [29],below the threshold
same,pKd,[5]; [29],below the threshold
same,pKd,[6]; [29],below the threshold
same,pKd,[7]; [29],3.75
same,pKd,[8]; [29],below the threshold
same,pKd,[9]; [29],below the threshold
same,pKd,[10]; [29],below the threshold
same,pKd,[11]; [29],below the threshold
same,pKd,[12]; [29],4.61
same,pKd,[13]; [29],3.94
same,pKd,[14]; [29],3.62
same,pKd,[15]; [29],4.1
same,pKd,[16]; [29],below the threshold
same,pKd,[17]; [29],4.09
same,pKd,[18]; [29],below the threshold
same,pKd,[19]; [29],below the threshold
same,pKd,[20]; [29],below the threshold
same,pKd,[21]; [29],below the threshold
same,pKd,[22]; [29],below the threshold
same,pKd,[23]; [29],3.47
same,pKd,[24]; [29],4.16
same,pKd,[25]; [29],below the threshold
same,pKd,[26]; [29],below the threshold
same,pKd,[27]; [29],below the threshold
"GIFPTLTSPL [SHROOM3, Q8TF72]",pKd,[1]; [29],below the threshold
same,pKd,[2]; [29],below the threshold
same,pKd,[3]; [29],below the threshold
same,pKd,[4]; [29],below the threshold
same,pKd,[5]; [29],below the threshold
same,pKd,[6]; [29],below the threshold
same,pKd,[7]; [29],below the threshold
same,pKd,[8]; [29],below the threshold
same,pKd,[9]; [29],below the threshold
same,pKd,[10]; [29],below the threshold
same,pKd,[11]; [29],below the threshold
same,pKd,[12]; [29],below the threshold
same,pKd,[13]; [29],below the threshold
same,pKd,[14]; [29],below the threshold
same,pKd,[15]; [29],below the threshold
same,pKd,[16]; [29],below the threshold
same,pKd,[17]; [29],below the threshold
same,pKd,[18]; [29],below the threshold
same,pKd,[19]; [29],below the threshold
same,pKd,[20]; [29],below the threshold
same,pKd,[21]; [29],below the threshold
same,pKd,[22]; [29],below the threshold
same,pKd,[23]; [29],4.15
same,pKd,[24]; [29],below the threshold
same,pKd,[25]; [29],below the threshold
same,pKd,[26]; [29],below the threshold
same,pKd,[27]; [29],below the threshold
"GKKSVKHSKI [ACOT6, Q3I5F7]",pKd,[1]; [30],below the threshold
same,pKd,[2]; [30],below the threshold
same,pKd,[3]; [30],3.56
same,pKd,[4]; [30],3.68
same,pKd,[5]; [30],below the threshold
same,pKd,[6]; [30],below the threshold
same,pKd,[7]; [30],3.68
same,pKd,[8]; [30],below the threshold
same,pKd,[9]; [30],below the threshold
same,pKd,[10]; [30],below the threshold
same,pKd,[11]; [30],below the threshold
same,pKd,[12]; [30],below the threshold
same,pKd,[13]; [30],below the threshold
same,pKd,[14]; [30],below the threshold
same,pKd,[15]; [30],below the threshold
same,pKd,[16]; [30],below the threshold
same,pKd,[17]; [30],below the threshold
same,pKd,[18]; [30],below the threshold
same,pKd,[19]; [30],below the threshold
same,pKd,[20]; [30],below the threshold
same,pKd,[21]; [30],4.07
same,pKd,[22]; [30],below the threshold
same,pKd,[23]; [30],below the threshold
same,pKd,[24]; [30],below the threshold
same,pKd,[25]; [30],3.92
same,pKd,[26]; [30],below the threshold
same,pKd,[27]; [30],below the threshold
